For this experiment, the target named is GST-tagged Nedd4-2, full length (mouse). As to the kind of experiment: pull-down.
Sequence of GST-tagged Nedd4-2, full length (mouse) (Q8CFI0 whole entry): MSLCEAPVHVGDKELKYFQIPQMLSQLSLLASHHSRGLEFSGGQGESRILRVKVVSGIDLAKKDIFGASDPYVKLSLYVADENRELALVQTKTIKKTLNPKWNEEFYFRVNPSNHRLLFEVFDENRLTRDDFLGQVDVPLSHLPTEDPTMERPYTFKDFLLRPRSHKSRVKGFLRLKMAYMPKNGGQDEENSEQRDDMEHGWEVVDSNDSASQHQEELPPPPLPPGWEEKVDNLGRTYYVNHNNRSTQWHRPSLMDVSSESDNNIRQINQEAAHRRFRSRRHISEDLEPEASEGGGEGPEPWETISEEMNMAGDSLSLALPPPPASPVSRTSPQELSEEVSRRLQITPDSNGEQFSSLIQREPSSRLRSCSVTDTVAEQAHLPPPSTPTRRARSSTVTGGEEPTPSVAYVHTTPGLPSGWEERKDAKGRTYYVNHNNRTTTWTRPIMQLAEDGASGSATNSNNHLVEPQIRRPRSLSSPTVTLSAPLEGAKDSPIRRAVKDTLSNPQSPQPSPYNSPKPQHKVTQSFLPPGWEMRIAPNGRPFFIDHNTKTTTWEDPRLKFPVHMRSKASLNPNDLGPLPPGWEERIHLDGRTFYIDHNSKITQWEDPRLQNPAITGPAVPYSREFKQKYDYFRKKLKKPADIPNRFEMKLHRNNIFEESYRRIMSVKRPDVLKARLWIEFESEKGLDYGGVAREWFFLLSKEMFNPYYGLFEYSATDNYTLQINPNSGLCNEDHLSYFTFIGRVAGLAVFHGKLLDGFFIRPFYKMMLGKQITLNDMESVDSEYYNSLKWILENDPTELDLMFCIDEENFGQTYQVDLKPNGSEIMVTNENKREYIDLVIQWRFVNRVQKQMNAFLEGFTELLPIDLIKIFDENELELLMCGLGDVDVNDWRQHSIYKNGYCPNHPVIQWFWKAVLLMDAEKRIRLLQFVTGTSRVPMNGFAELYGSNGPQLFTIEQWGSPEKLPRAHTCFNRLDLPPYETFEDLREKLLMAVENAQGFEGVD

As for “HA-tagged Connexin43 (gap junction alpha 1 protein) (from UniProt P23242 1-382) (natural protein)”, the fold bound against GST-N4-1 came out at 2 fold.

B1: HA-tagged Kir4.1 (inwardly rectifying K+ channel 4.1) (natural protein)
chain: MTSVAKVYYSQTTQTESRPLVAPGIRRRRVLTKDGRSNVRMEHIADKRFLYLKDLWTTFIDMQWRYKLLLFSATFAGTWFLFGVVWYLVAVAHGDLLELGPPANHTPCVVQVHTLTGAFLFSLESQTTIGYGFRYISEECPLAIVLLIAQLVLTTILEIFITGTFLAKIARPKKRAETIRFSQHAVVASHNGKPCLMIRVANMRKSLLIGCQVTGKLLQTHQTKEGENIRLNQVNVTFQVDTASDSPFLILPLTFYHVVDETSPLKDLPLRSGEGDFELVLILSGTVESTSATCQVRTSYLPEEILWGYEFTPAISLSASGKYIADFSLFDQVVKVASPSGLRDSTVRYGDPEKLKLEESLREQAEKEGSALSVRISNV
Regarding B1, the fold bound against GST-N4-1 amounted to 2 fold.

The record behind these values is doi:10.1101/683441.
